{
  "source": "patent US11571484B2",
  "about": "“Compositions that target tumor-associated macrophages and methods of use therefor” (Sanford Burnham Prebys Medical Discovery Institute, priority 2017, dated 2023)",
  "key": {"[1]": {"biological_target": "T1, recombinant human macrophage mannose receptor rhMMR/CD206 (Homo sapiens, UniProt P22897)", "T1 construct": "purchased R&D Systems 2534-MR-050", "T1 sequence (P22897 19-1456)": "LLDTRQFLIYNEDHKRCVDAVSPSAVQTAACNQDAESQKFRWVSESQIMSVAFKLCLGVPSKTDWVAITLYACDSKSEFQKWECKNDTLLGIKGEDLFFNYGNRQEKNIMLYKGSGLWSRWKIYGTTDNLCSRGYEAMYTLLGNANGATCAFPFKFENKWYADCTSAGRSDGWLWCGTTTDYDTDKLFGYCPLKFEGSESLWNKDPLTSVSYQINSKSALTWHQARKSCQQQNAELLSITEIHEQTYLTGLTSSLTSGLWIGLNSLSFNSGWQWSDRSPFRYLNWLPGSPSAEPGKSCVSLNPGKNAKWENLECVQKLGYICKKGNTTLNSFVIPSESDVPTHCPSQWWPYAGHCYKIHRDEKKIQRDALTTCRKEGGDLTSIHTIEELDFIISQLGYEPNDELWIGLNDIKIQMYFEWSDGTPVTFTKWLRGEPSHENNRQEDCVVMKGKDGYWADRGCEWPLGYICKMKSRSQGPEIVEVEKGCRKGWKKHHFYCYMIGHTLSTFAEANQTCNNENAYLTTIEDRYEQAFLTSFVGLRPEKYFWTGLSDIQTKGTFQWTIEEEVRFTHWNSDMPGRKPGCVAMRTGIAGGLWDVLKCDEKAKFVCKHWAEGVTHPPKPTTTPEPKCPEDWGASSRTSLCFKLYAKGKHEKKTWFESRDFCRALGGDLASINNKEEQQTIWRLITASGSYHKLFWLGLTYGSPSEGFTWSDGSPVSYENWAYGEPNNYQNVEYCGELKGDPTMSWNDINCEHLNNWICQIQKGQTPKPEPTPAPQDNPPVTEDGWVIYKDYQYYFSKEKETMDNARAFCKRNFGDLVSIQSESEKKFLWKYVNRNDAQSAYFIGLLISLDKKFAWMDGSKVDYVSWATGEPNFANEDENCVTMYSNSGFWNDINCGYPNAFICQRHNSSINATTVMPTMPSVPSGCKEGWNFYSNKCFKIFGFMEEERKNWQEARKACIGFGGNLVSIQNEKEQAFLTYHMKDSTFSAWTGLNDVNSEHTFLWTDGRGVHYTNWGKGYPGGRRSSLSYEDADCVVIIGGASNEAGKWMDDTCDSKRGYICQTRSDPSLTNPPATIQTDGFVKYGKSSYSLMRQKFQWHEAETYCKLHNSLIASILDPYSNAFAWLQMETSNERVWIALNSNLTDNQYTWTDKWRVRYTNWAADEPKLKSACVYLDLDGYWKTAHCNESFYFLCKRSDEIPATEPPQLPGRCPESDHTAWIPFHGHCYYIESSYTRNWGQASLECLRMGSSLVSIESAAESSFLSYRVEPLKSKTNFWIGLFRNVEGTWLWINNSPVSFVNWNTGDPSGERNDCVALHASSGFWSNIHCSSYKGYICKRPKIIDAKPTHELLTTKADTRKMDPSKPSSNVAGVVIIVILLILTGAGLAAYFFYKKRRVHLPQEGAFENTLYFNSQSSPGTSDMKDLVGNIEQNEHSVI", "assay": "Fluorescence anisotropy assay with human recombinant CD206", "assay_type": "binding", "details": "100 nM FAM peptide, 0.4 μM protein", "procedure": "Time course of fluorescence anisotropy of FAM-mUNO during incubation with human recombinant CD206 (black curve, 3001) or with CD163 (red curve, 3003). The concentration of FAM-mUNO was 100 nM and the concentration of CD206 and CD163 was […]. The anisotropy for the FAM-mUNO alone is shown in the green curve 3004.\nFluorescence anisotropy was also carried out using recombinant human macrophage mannose receptor rhMMR/CD206 to determine whether UNO peptide interactions with mouse CD206 carried over to human CD206. […]\nIn all experiments, FA signal measurements were done under pseudo first-order conditions with 50 nM singly labelled FAM peptides and 1 μM proteins. […] Assays were carried out in kinetic mode in a total volume of 30 μl at 25° C. on the PHERAstar (BMG Labtech, Germany) microplate reader using an optical module with excitation and emission filters of 485 nm (slit 10 nm) and 520 nm (slit 10 nm), respectively. […] The background fluorescence (receptor and buffer components in the absence of fluorescent ligand) was subtracted independently from all intensity channels. FA signals at time t after initiation of binding reaction was calculated as parameters r(t) from the equation: […]"}, "[2]": {"details": "4T1 tumor lysate, injected within 1 min", "protocol": "High-performance liquid chromatography (Agilent 1200 series, USA)-mass spectrometry (SciexQ-Trap 4500, Canada) analysis was done using a C18 column (Kinetex 2.6 μm EVO C18 100×4.6 mm, Phenomenex, USA). Ionization was performed at 300° C. with declustering potential set 30 V. Chromatography gradient started with 2 min 5% acetonitrile in water, followed by linear increase to 95% acetonitrile in 10 min and finally 10 min isocratic flow of 95% acetonitrile in water. Both eluents, water and acetonitrile, contained 0.2% formic acid. Flow rate was 0.3 ml/min. Column temperature was maintained at 40° C. Autosampler temperature was set to 37° C. Retention times and m/z signals of FAM-UNO, were determined from 30 μM FAM-UNO solution in PBS. Tumor lysate was split into two aliquots of 200 μL in each. From one aliquot, 20 μL were injected and the LC-MS profile obtained. The second aliquot was mixed with 50 μL of 30 μM FAM-UNO in PBS and injected within 1 min to LC-MS and the LC-MS profile obtained."}, "[3]": {"tested_on": "intestinal tissue (CD209) and lymph nodes of healthy mice", "assay": "Free peptide homing in healthy Balb/C mice", "assay_type": "in vivo, mouse", "details": "30 nmoles i.v., 2 h", "procedure": "A, Thirty nmoles of FAM-UNO were injected intravenously in healthy Balb/C mice. Peptide was allowed to circulate for 2 hours. Mice were then sacrificed and intestinal tissue was analyzed by immunofluorescence using rabbit anti-FAM (green) together with rat anti-CD209 (red) and counterstained with DAPI. B, Thirty nmoles of FAM-UNO were injected intravenously in mice bearing 4T1 tumors, 10 days after orthotopic inoculation of 10^6 Cells. Peptide was let to circulate for two hours, mice were then sacked and tumor and tissues analyzed by immunofluorescence using rabbit Anti-FAM (green) together with rat anti-CD209 (red) and counterstained with DAPI (Blue). Images in A and B were taken using the same imaging conditions. Scale bar: 50 μm (images in B are at the same scale as in A). Representative images from n=3 mice.\nThirty nmoles of FAM-UNO were injected intravenously in healthy Balb/C female mice. Peptide was allowed to circulate for 2 hours. Mice were then sacrificed, and inguinal lymph node and kidney analyzed by immunofluorescence using rabbit anti-FAM together with rat anti-CD206 (red, 2901) and counterstained with DAPI (blue). FAM-UNO is absent from the healthy inguinal lymph node (left panel), while some CD206 is observed (2901). In the kidney (right panel), the FAM fluorescence signal is detected throughout the tissue. Scale bars: 100 μm. Representative images from n=3 mice."}},
  "note": "Ends that are not written are not given here. FAM = 5(6)-carboxyfluorescein; Ahx = NCCCCCC(=O)O",
  "data": [
    {"substance": "FAM-UNO: FAM-labeled UNO peptide CSPGAKVRC (SEQ ID NO: 1); 5(6)-carboxyfluorescein with 6-aminohexanoic acid spacer at the N-terminus ({FAM-Ahx}-CSPGAKVRC; cysteine pairing not given here)", "values": [
      {"measurement": "change in fluorescence anisotropy (interaction) with human recombinant CD206", "setting": "[1]", "result": "did not cause a change in the fluorescence anisotropy"},
      {"measurement": "fate of the disulfide bridge on incubation with tumor lysate", "setting": "[2]", "result": "the disulfide bridge was reduced to yield a linear peptide"},
      {"measurement": "homing to lymph nodes of healthy mice", "setting": "[3]", "result": "did not home to the lymph nodes of healthy Balb/C mice"},
      {"measurement": "recruitment to intestinal tissue (expresses CD209) of healthy mice", "setting": "[3]", "result": "not recruited to intestinal tissue of healthy mice"}
    ]}
  ]
}
